Target: T1, Hs CAF1, purified for crystallization (human, UniProt Q9UIV1-1 1-285)
T1 construct: human CAF1 (CNOT7); model holds residues Q10-S266 and G274-E280 (chain B); residues up to E280 are seen in the map, so it is probably the whole protein; also called CNOT7; source: E. coli Rosetta2, purified (GSTrap, PreScission cleavage, gel filtration)
Assay: crystal structure; complex of purified NOT1 MIF4G and CAF1 (1.2:1) isolated by gel filtration; hanging drop, 4°C, 0.1 M Tris-HCl pH 8.2, 16% PEG 8000, 0.2 M MgCl2, 0.2 M ammonium sulfate; 2.70 Å
Details: both partners purified

T1 sequence (Q9UIV1 whole entry, the tested form may be a part): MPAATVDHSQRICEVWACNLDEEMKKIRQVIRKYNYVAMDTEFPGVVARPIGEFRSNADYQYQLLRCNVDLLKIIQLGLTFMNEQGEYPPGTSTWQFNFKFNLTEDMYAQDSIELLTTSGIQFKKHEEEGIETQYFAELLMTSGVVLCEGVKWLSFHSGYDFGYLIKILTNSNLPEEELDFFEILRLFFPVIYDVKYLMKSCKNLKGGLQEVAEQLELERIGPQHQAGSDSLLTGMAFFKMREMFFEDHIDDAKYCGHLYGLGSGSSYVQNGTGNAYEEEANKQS

B1: MIF4G domain of Hs NOT1 (residues 1093-1317), purified for crystallization (domain or fragment, human, UniProt A5YKK6-1 1093-1317, looked up)
chain: ENIQEKIAFIFNNLSQSNMTQKVEELKETVKEEFMPWVSQYLVMKRVSIEPNFHSLYSNFLDTLKNPEFNKMVLNETYRNIKVLLTSDKAAANFSDRSLLKNLGHWLGMITLAKNKPILHTDLDVKSLLLEAYVKGQQELLYVVPFVAKVLESSIRSVVFRPPNPWTMAIMNVLAELHQEHDLKLNLKFEIEVLCKNLALDINELKPGNLLKDKDRLKNLDEQLS
notes: His6 fusion is PreScission-cleavable; also called NOT1 MIF4G domain; source: E. coli BL21 Codon Plus RIL, purified (Ni Sepharose IMAC, gel filtration)
binding result: binds
